Among the data in US20240301385, “DNA MODIFYING ENZYMES AND ACTIVE FRAGMENTS AND VARIANTS THEREOF AND METHODS OF USE” (LIFEEDIT THERAPEUTICS, INC., published 2024) are activity values, retold here.

For data set [1], the target named is nAPG07433.1-APG05840 (synthetic). In words: cell_activity; HEK293FT; C>G predominant; PAM SEQ 152. As to conditions: tags: SV40 NLS, 3xFLAG N-term; nucleoplasmin NLS C-term.
In data set [2] the target is T1, nAPG07433.1-APG09980 (synthetic).
T1 chain: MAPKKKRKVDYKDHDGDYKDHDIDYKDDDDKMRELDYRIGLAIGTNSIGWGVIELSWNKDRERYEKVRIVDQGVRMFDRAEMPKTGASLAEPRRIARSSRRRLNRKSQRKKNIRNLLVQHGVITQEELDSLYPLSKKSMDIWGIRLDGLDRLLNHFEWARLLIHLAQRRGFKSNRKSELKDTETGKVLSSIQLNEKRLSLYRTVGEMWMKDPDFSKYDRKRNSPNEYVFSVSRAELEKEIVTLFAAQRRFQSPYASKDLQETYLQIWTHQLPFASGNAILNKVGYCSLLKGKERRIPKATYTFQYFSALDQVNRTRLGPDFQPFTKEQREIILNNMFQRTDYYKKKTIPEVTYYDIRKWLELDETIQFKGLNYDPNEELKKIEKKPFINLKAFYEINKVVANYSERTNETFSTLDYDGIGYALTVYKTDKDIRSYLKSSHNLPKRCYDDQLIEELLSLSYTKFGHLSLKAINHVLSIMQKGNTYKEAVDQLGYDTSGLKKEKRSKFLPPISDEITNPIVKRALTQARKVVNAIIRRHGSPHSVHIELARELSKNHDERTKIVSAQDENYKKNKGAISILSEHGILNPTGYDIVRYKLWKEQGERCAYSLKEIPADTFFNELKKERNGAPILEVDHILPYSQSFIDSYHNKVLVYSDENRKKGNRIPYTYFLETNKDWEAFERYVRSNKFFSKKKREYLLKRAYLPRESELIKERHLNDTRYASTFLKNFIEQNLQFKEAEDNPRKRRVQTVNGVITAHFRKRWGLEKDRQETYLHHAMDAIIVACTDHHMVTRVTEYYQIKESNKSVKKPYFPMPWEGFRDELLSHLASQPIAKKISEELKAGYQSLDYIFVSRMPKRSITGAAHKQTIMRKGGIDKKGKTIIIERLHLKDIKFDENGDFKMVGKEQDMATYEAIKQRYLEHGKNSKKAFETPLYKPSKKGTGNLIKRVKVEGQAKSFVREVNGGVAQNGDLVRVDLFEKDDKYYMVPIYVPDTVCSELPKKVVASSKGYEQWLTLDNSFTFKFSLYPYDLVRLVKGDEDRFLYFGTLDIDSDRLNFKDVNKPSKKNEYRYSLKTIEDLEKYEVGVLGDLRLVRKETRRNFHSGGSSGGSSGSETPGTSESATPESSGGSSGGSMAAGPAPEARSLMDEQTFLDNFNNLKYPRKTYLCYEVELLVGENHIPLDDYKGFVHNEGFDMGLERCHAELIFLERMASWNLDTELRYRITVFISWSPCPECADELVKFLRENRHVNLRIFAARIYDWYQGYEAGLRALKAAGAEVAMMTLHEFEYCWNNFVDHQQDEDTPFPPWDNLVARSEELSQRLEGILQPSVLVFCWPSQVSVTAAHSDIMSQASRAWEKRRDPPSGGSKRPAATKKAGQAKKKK
The description is as above. As to conditions: tags: SV40 NLS, 3xFLAG N-term; nucleoplasmin NLS C-term.

B1: SGN000930 sgRNA ; SGN000930 target (ssRNA ; dsDNA)
RNA: GAACAACUCAAAUGGAAAUGAAUAUGUCAUAGUUCCAUGAAAGCCAAAAGUGGCUUUGAUGUUUCUAUGAUAAGGGUUUCGGCCCGUGGCGUCGGGGAUCGCCUGCCCAUUCCGAUGGGCUUCUCCCCAUUUAUU
DNA 1: GAACAACTCAAATGGAAATGAATAT
DNA 2: ATATTCATTTCCATTTGAGTTGTTC
Consider B1, for which the activity in data set [1] was found to be 17.5 % mutated reads; in data set [2] it was 18.4 % mutated reads.
